Measured values: patent publication EP4714976A1

Tests used:
[1] = biological target: extracellular domain of FGFR2c protein (Example 1) (UniProt P21802); experiment: phage ELISA
[2] = biological target: extracellular domain of the FGFR2b protein (NP_075259.4) (UniProt P21802); experiment: phage ELISA
Chain of extracellular domain of the FGFR2b protein (NP_075259.4) (P21802 other isoform, or with tags, fused parts or gaps): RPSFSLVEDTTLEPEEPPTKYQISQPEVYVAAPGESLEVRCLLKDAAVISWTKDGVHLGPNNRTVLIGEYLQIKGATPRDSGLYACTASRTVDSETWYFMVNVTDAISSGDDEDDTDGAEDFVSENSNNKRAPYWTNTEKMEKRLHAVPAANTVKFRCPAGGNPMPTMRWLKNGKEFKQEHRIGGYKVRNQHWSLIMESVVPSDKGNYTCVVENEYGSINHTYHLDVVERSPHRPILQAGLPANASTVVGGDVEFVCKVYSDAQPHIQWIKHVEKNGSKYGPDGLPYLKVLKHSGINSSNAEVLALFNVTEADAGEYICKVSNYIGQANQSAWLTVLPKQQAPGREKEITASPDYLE

Chain of extracellular domain of FGFR2c protein (Example 1) (P21802 22-377): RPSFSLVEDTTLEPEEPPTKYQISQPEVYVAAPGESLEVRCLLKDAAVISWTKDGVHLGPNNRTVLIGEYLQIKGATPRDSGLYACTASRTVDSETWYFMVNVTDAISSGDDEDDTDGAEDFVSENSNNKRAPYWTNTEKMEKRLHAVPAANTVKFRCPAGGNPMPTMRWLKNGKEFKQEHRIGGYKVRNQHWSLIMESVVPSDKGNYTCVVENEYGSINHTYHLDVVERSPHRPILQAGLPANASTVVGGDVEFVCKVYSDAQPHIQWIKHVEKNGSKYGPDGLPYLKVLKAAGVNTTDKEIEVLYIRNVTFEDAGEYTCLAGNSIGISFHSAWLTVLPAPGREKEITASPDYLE

OD (450 nm) value [1]: 0.045
OD (450 nm) value [2]: 0.024
Substance: Negative control (Tables 1 and 2) (antibody)
